From the supplement of paper PMC10567573

B1: NP_116010.1 (parent)
chain: HSLRAVSTDPPHHDHHDEFCLMP

What was measured:
[1] = variants of: B1; experiment: protein stability index of a GFP-peptide fusion (GPS, HEK-293T) (PSI 1-6); higher = more stable; conditions: c terminus: native
[2] = variants of: B1; experiment: as above; conditions: c terminus: native; remark: listed apart in the source

Variant	protein stability index [1]	protein stability index [2]
L3H	2.57	2.9
L3K	2.76	2.04
L3Q	2.78	2.52
L3C	2.38	1.7
L3S	3.2	2.59
L3M	2.43	3.08
L3G	3.07	2.46
L3D	2.5	2.14
L3Y	2.38	
R4M	2.45	2
R4Q	3.06	1.83
R4F	2.11	2.22
R4T	3.08	2.84
R4G	3.32	2.64
R4E	3.58	2.41
R4I	2.92	1.55
R4L	2.73	3.03
H1Y	2.63	1.19
H1T	3.55	2.54
H1R	2.68	2.35

Variant	protein stability index [1]	protein stability index [2]
H1A	3.26	1.49
H1N	3.37	1.64
H1C	2.68	2.48
H1P	3.39	2.21
H1Q	3.06	1.9
H1F	2.24	
H1G	3.41	2.65
H1L	3.11	1.68
H1D	3.42	3.31
H1M	2.8	1.72
H1S	3.04	2.26
P11I	2.58	2.28
P11M	2.71	2.95
P11C	2.44	1.57
P11G	2.59	2.46
P11F	2.44	1.5
P11V	2.21	1.74
P11Y	2.26	3.15
P11D	2.73	2.3
P11Q	2.56	1.99

Variant	protein stability index [1]	protein stability index [2]
P11R	2.42	2.66
P11S	2.34	2.58
P11N	2.5	2.41
P11T	2.24	1.9
P11K	2.65	2.58
P11E	2.72	2.81
D17M	2.3	4.33
D17G	2.11	1.88
D17V	2.33	2.93
D17I	2.57	2.8
D17T	2.42	2.33
D17K	2.4	
D17F	2.21	3.35
D17Y	2.17	3.33
D17N	2.4	
D17C	2.46	2.45
D17Q	2.2	2
D17R	2.16	
D17E	2.66	2.59
D17S	2.31	2.78
